Test results from paper PMC2783839.

Molecular target: T1, NEUROG2 (cNEUROG2) (Gallus gallus (chick)?, UniProt Q9YH82 1-213)
T1 sequence: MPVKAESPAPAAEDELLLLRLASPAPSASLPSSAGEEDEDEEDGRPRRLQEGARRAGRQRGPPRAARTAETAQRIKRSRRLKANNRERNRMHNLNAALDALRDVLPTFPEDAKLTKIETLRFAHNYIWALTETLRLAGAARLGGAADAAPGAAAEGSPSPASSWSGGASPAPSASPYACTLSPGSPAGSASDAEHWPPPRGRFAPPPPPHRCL
Test: EMSA

B1: (Ebox)3 (dsDNA)
DNA 1: GATCCAGGCAGGTGGCAGGCAGGTGGCAGGCAGGTGGCAGATC
DNA 2: GATCTGCCACCTGCCTGCCACCTGCCTGCCACCTGCCTGGATC
binding result: no binding
